Target: Hck (UniProt P08631)
Experiment: phosphorylation enrichment, bacterial display (enrichment ratio); higher = better substrate or ligand; peptides without Tyr show the background
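Also: 11-residue human phosphosite peptides and single-mutation variants displayed on the E. coli surface, counted by deep sequencing, each peptide's frequency after selection divided by its frequency in the unselected input library; frequency after pTyr selection over input frequency; kinase dosed for 20-30% of maximal phosphorylation in three min.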

Sequence of Hck (P08631 whole entry, looked up): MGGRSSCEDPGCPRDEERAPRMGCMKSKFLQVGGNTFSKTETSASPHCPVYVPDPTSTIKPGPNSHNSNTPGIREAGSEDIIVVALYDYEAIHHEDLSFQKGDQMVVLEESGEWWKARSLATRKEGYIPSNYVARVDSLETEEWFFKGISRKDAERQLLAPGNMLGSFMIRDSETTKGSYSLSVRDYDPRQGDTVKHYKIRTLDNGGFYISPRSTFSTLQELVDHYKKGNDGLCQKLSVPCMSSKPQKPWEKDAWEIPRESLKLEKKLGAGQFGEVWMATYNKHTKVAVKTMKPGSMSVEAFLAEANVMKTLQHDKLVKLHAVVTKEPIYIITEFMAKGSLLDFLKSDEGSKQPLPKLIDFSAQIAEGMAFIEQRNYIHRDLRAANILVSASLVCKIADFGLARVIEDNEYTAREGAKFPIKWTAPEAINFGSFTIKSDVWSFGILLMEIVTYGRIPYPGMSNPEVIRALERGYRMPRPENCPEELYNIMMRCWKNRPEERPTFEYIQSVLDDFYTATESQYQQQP

Sequence | phosphorylation enrichment
DENWFYMRAAS [RPS19_Y54_T55M] | 0.485
LSFSEYASVQV [SIRPA_Y496_P491L] | 2.93
ANFAKYGNPNE [BCHE_Y505] | 0.362
VECRVYAEDPY [PCCA_Y401] | 0.686
LQFKNYQQLFD [MAN2A1_Y442] | 0.527
FDCGMYSHLQG [LGR4_Y848_YF] | 3.54
EHLNRYISDTF [TTLL10_Y446] | 0.51
GVSFIYTIDGS [DCX_Y105_R102S_YF] | 0.976
SHLLRYLSWTV [CLCNKB_Y93] | 0.544
YSQNICIQNRN [PKP2_Y631_Y631C] | 0.501
VGSIKYLKREW [KCNMA1_Y885_E884K] | 0.446
ITKNPYDPPGR | 0.454
YNNYGYGSDGF [HNRNPH3_Y161_N163S] | 0.521
GHGEEYPAAGA [NOTCH3_Y2221] | 0.431
KAESWYQTKFE [KRT75_Y342_E337K_YF] | 0.543
SFPSTYRYERG [INPPL1_Y661_P659S] | 0.392
SLQFEYVHYGG [CDC14A_Y591_S589F] | 0.551

Sequence | phosphorylation enrichment
FEPWVYSFSFE [PRKDC_Y647_YF] | 3.01
TRSFDYMEGGD [FGF7_Y58_YF] | 0.599
RRIHSYRRHLW [VHL_Y112_G114R] | 0.746
VVQGIYGFHHF [UFSP2_Y285_YF] | 8.93
RLLRGHDQSAY [HLA-C_Y137_Y137H] | 0.549
IEDPFYGNDSD [ACP1_Y133_YF] | 0.628
KKILCYIQGGS [HYDIN_Y4610_N4606K] | 0.521
KLMTEYKRRKQ [ARFGEF3_Y2029_K2031R] | 0.521
NKHTNYTMEHI [ACTN1_Y708] | 0.384
IGKDLYANNVL [ACTA2_Y296_R292G] | 0.775
YMLYQYLKQIE [RPAP3_Y569_D564Y] | 5.99
NYDLDYDSVQP [MYC_Y16] | 0.78
PIFLFYLMDLS [ITGB2_Y131_D128Y_YF] | 0.95
PRDSGYSFETI [MAP1B_Y1921_S1917R_YF] | 0.823
GDFLSYREFHS [ERBIN_Y1107_YF] | 0.385
LERYIYNREEY [HLA-DPB1_Y59_F64Y] | 1.72

Target: Jak2 (UniProt O60674)
Sequence (O60674 whole entry, looked up): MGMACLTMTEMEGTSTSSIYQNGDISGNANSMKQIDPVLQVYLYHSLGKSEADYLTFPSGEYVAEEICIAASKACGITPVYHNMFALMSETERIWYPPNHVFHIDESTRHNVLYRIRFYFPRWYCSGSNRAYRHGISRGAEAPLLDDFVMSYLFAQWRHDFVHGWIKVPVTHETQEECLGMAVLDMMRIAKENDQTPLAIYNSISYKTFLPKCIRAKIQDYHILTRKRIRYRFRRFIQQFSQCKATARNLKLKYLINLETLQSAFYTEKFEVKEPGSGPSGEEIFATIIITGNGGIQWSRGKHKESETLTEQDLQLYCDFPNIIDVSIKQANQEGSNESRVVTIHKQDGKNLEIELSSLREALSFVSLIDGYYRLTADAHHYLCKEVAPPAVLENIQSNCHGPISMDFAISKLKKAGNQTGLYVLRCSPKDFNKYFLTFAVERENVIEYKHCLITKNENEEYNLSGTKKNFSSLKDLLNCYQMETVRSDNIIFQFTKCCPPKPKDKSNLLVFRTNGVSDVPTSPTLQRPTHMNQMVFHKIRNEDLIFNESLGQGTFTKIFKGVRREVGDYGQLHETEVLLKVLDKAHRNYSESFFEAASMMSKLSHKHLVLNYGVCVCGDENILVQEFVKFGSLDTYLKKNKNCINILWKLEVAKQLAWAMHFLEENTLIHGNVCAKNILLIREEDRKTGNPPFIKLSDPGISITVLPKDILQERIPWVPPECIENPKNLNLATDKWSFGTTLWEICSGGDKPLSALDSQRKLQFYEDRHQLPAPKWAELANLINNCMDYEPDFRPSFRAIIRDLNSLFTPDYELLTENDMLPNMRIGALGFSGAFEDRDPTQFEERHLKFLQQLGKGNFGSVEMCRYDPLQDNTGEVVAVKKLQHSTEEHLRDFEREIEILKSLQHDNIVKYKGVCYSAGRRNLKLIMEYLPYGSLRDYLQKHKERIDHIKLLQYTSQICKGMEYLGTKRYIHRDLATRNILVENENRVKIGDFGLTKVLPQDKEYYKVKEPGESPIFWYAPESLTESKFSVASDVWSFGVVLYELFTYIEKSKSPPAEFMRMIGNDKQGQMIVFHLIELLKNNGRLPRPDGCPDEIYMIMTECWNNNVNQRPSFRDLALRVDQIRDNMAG
Experiment: as above

Sequence | phosphorylation enrichment
DENWFYMRAAS [RPS19_Y54_T55M] | 1.25
LSFSEYASVQV [SIRPA_Y496_P491L] | 1.1
ANFAKYGNPNE [BCHE_Y505] | 0.372
VECRVYAEDPY [PCCA_Y401] | 1.26
LQFKNYQQLFD [MAN2A1_Y442] | 0.882
FDCGMYSHLQG [LGR4_Y848_YF] | 1.18
EHLNRYISDTF [TTLL10_Y446] | 0.535
GVSFIYTIDGS [DCX_Y105_R102S_YF] | 1.54
SHLLRYLSWTV [CLCNKB_Y93] | 1.06
YSQNICIQNRN [PKP2_Y631_Y631C] | 0.777
VGSIKYLKREW [KCNMA1_Y885_E884K] | 0.61
ITKNPYDPPGR | 0.662
YNNYGYGSDGF [HNRNPH3_Y161_N163S] | 0.631
GHGEEYPAAGA [NOTCH3_Y2221] | 0.549
KAESWYQTKFE [KRT75_Y342_E337K_YF] | 0.871
SFPSTYRYERG [INPPL1_Y661_P659S] | 0.767
SLQFEYVHYGG [CDC14A_Y591_S589F] | 0.766

Sequence | phosphorylation enrichment
FEPWVYSFSFE [PRKDC_Y647_YF] | 1.25
TRSFDYMEGGD [FGF7_Y58_YF] | 1.05
RRIHSYRRHLW [VHL_Y112_G114R] | 0.633
VVQGIYGFHHF [UFSP2_Y285_YF] | 0.846
RLLRGHDQSAY [HLA-C_Y137_Y137H] | 0.754
IEDPFYGNDSD [ACP1_Y133_YF] | 2.17
KKILCYIQGGS [HYDIN_Y4610_N4606K] | 1.17
KLMTEYKRRKQ [ARFGEF3_Y2029_K2031R] | 0.458
NKHTNYTMEHI [ACTN1_Y708] | 0.421
IGKDLYANNVL [ACTA2_Y296_R292G] | 1.03
YMLYQYLKQIE [RPAP3_Y569_D564Y] | 1.85
NYDLDYDSVQP [MYC_Y16] | 1.39
PIFLFYLMDLS [ITGB2_Y131_D128Y_YF] | 3.98
PRDSGYSFETI [MAP1B_Y1921_S1917R_YF] | 2.36
GDFLSYREFHS [ERBIN_Y1107_YF] | 0.557
LERYIYNREEY [HLA-DPB1_Y59_F64Y] | 0.998

Source: the supplement of paper PMC10065799, “High-throughput profiling of sequence recognition by tyrosine kinases and SH2 domains using bacterial peptide display” (eLife, 2023)
